Consider three molecules from article PMC2897852 (PLoS ONE, 2010).

Residue numbers refer to the chain shown, from its start. Names and notes keep the numbering of the source.

First the molecules themselves.
B1: tag-free FtsZ (M. tuberculosis FtsZ, polyhistidine tag cleaved with thrombin) (natural protein)
chain: MTPPHNYLAVIKVVGIGGGGVNAVNRMIEQGLKGVEFIAINTDAQALLMSDADVKLDVGRDSTRGLGAGADPEVGRKAAEDAKDEIEELLRGADMVFVTAGEGGGTGTGGAPVVASIARKLGALTVGVVTRPFSFEGKRRSNQAENGIAALRESCDTLIVIPNDRLLQMGDAAVSLMDAFRSADEVLLNGVQGITDLITTPGLINVDFADVKGIMSGAGTALMGIGSARGEGRSLKAAEIAINSPLLEASMEGAQGVLMSIAGGSDLGLFEINEAASLVQDAAHPDANIIFGTVIDDSLGDEVRVTVIAAGFDVSGPGRKPVMGETGGAHRIESAKAGKLTSTLFEPVDAVSVPLHTNGATLSIGGDDDDVDVPPFMRR
notes: also called FtsZTB
B2: FtsZ G103S, tag-free (pRR3) (natural protein)
chain: B1 chain with G103S
B3: FtsZ D210G, tag-free (pRR7) (natural protein)
chain: B1 chain with D210G

The target in this assay is T1, His-ClpX (M. tuberculosis ClpX, pRD21) (M. tuberculosis, UniProt P9WPB9 1-426).
T1 construct: also called his-clpXTB; recombinant His-ClpX fusion protein
T1 sequence (P9WPB9 whole entry, the tested form may be a part): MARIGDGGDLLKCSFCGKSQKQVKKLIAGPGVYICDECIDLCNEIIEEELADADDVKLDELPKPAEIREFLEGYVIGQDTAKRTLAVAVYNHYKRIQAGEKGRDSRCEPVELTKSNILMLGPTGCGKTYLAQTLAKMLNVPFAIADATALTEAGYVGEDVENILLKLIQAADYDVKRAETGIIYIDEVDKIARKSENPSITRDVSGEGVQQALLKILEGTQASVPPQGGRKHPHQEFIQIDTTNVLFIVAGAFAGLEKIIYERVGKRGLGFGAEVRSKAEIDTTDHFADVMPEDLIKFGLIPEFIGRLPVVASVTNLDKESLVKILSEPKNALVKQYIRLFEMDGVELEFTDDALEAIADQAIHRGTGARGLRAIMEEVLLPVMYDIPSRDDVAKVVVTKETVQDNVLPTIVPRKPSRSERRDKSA
Put plainly: pull-down. Particulars: both partners purified.
For the molecule B1, the binding result is listed as “binds”.

For B2, the binding result is given as “binds”.

As to B3, the binding result is “binds”.
